Data from the supplement of paper PMC9112550, “Optimization of the antimicrobial peptide Bac7 by deep mutational scanning” (BMC Biology, 2022).

Tested on: Escherichia coli TOP10
Assay: shrunken log2 fold change of peptide-encoding DNA abundance (4.5 h post-induction vs induction); higher = less antimicrobial activity (less host growth inhibition)
Conditions: time post-induction: 4.5 h; library: site-saturation at positions 5, 18, 19, 20
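Also: peptides expressed intracellularly from a pBAD plasmid library in pooled LB shake-flask culture, induced with 0.3% L-arabinose, DNA abundance read by NGS, three biological replicates, DESeq2 with apeglm shrinkage.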

## RRIRMRPPRLPRPRPRPAWMPRP
  shrunken log2 fold change: 0.189

## RRIRMRPPRLPRPRPRPAWQPRP
  shrunken log2 fold change: 0.197

## RRIRMRPPRLPRPRPRPAYAPRP
  shrunken log2 fold change: 0.0769

## RRIRMRPPRLPRPRPRPCCFPRP
  shrunken log2 fold change: 0.116

## RRIRMRPPRLPRPRPRPCDPPRP
  shrunken log2 fold change: -0.0166

## RRIRMRPPRLPRPRPRPCFYPRP
  shrunken log2 fold change: -0.16

## RRIRMRPPRLPRPRPRPCHDPRP
  shrunken log2 fold change: -0.347

## RRIRMRPPRLPRPRPRPCHVPRP
  shrunken log2 fold change: -0.0132

## RRIRMRPPRLPRPRPRPCKDPRP
  shrunken log2 fold change: -0.0302

## RRIRMRPPRLPRPRPRPCMRPRP
  shrunken log2 fold change: 0.889

## RRIRMRPPRLPRPRPRPCMYPRP
  shrunken log2 fold change: 0.051

## RRIRMRPPRLPRPRPRPCRWPRP
  shrunken log2 fold change: 0.00911

## RRIRMRPPRLPRPRPRPCSYPRP
  shrunken log2 fold change: -0.0368

## RRIRMRPPRLPRPRPRPCVAPRP
  shrunken log2 fold change: 0.764

## RRIRMRPPRLPRPRPRPCVCPRP
  shrunken log2 fold change: -0.00811

## RRIRMRPPRLPRPRPRPCVTPRP
  shrunken log2 fold change: 0.0301

## RRIRMRPPRLPRPRPRPCVYPRP
  shrunken log2 fold change: -0.195

## RRIRMRPPRLPRPRPRPCWSPRP
  shrunken log2 fold change: 0.349

## RRIRMRPPRLPRPRPRPDALPRP
  shrunken log2 fold change: 0.438

## RRIRMRPPRLPRPRPRPDFAPRP
  shrunken log2 fold change: 0.0706

## RRIRMRPPRLPRPRPRPDGTPRP
  shrunken log2 fold change: 2.88

## RRIRMRPPRLPRPRPRPDHMPRP
  shrunken log2 fold change: 0.0296

## RRIRMRPPRLPRPRPRPDKGPRP
  shrunken log2 fold change: -0.0141

## RRIRMRPPRLPRPRPRPDKLPRP
  shrunken log2 fold change: 0.282

## RRIRMRPPRLPRPRPRPDLPPRP
  shrunken log2 fold change: -0.0325

## RRIRMRPPRLPRPRPRPDMRPRP
  shrunken log2 fold change: 0.0245

## RRIRMRPPRLPRPRPRPDNFPRP
  shrunken log2 fold change: -0.184

## RRIRMRPPRLPRPRPRPDNTPRP
  shrunken log2 fold change: 0.28

## RRIRMRPPRLPRPRPRPDNWPRP
  shrunken log2 fold change: 0.402

## RRIRMRPPRLPRPRPRPDPHPRP
  shrunken log2 fold change: 0.0256

## RRIRMRPPRLPRPRPRPDPSPRP
  shrunken log2 fold change: -0.0334

## RRIRMRPPRLPRPRPRPDQEPRP
  shrunken log2 fold change: 0.0392

## RRIRMRPPRLPRPRPRPDQWPRP
  shrunken log2 fold change: 0.312

## RRIRMRPPRLPRPRPRPDRAPRP
  shrunken log2 fold change: 0.861

## RRIRMRPPRLPRPRPRPDREPRP
  shrunken log2 fold change: -0.00516

## RRIRMRPPRLPRPRPRPDRQPRP
  shrunken log2 fold change: 0.239

## RRIRMRPPRLPRPRPRPDSAPRP
  shrunken log2 fold change: 0.599

## RRIRMRPPRLPRPRPRPDTDPRP
  shrunken log2 fold change: 0.0472

## RRIRMRPPRLPRPRPRPDTEPRP
  shrunken log2 fold change: 0.33

## RRIRMRPPRLPRPRPRPDTNPRP
  shrunken log2 fold change: 1.3

## RRIRMRPPRLPRPRPRPDTPPRP
  shrunken log2 fold change: 0.872

## RRIRMRPPRLPRPRPRPDVFPRP
  shrunken log2 fold change: 0.387

## RRIRMRPPRLPRPRPRPDVLPRP
  shrunken log2 fold change: -0.123

## RRIRMRPPRLPRPRPRPDVYPRP
  shrunken log2 fold change: -0.119

## RRIRMRPPRLPRPRPRPDWCPRP
  shrunken log2 fold change: 0.0698

## RRIRMRPPRLPRPRPRPDYEPRP
  shrunken log2 fold change: -0.0178

## RRIRMRPPRLPRPRPRPDYKPRP
  shrunken log2 fold change: 0.248

## RRIRMRPPRLPRPRPRPDYVPRP
  shrunken log2 fold change: -0.183

## RRIRMRPPRLPRPRPRPEDKPRP
  shrunken log2 fold change: 2.94

## RRIRMRPPRLPRPRPRPEELPRP
  shrunken log2 fold change: 0.123

## RRIRMRPPRLPRPRPRPEEMPRP
  shrunken log2 fold change: 3.07

## RRIRMRPPRLPRPRPRPEGCPRP
  shrunken log2 fold change: 3.93

## RRIRMRPPRLPRPRPRPEGEPRP
  shrunken log2 fold change: 0.123

## RRIRMRPPRLPRPRPRPEGTPRP
  shrunken log2 fold change: 0.0716

## RRIRMRPPRLPRPRPRPEGVPRP
  shrunken log2 fold change: 3.21

## RRIRMRPPRLPRPRPRPEHEPRP
  shrunken log2 fold change: 0.0191

## RRIRMRPPRLPRPRPRPEIDPRP
  shrunken log2 fold change: 3.19

## RRIRMRPPRLPRPRPRPEIIPRP
  shrunken log2 fold change: 2.84

## RRIRMRPPRLPRPRPRPEKLPRP
  shrunken log2 fold change: 0.462

## RRIRMRPPRLPRPRPRPEKMPRP
  shrunken log2 fold change: 1.68

## RRIRMRPPRLPRPRPRPEKQPRP
  shrunken log2 fold change: 2.16

## RRIRMRPPRLPRPRPRPELCPRP
  shrunken log2 fold change: 3.34

## RRIRMRPPRLPRPRPRPELMPRP
  shrunken log2 fold change: 3.86

## RRIRMRPPRLPRPRPRPEMFPRP
  shrunken log2 fold change: 2.24

## RRIRMRPPRLPRPRPRPENGPRP
  shrunken log2 fold change: 0.0676

## RRIRMRPPRLPRPRPRPEPDPRP
  shrunken log2 fold change: 1.12

## RRIRMRPPRLPRPRPRPEQNPRP
  shrunken log2 fold change: 2.47

## RRIRMRPPRLPRPRPRPERAPRP
  shrunken log2 fold change: 2.76

## RRIRMRPPRLPRPRPRPEREPRP
  shrunken log2 fold change: 1.76

## RRIRMRPPRLPRPRPRPERPPRP
  shrunken log2 fold change: 0.338

## RRIRMRPPRLPRPRPRPESRPRP
  shrunken log2 fold change: 2.68

## RRIRMRPPRLPRPRPRPEWCPRP
  shrunken log2 fold change: 0.234

## RRIRMRPPRLPRPRPRPEWQPRP
  shrunken log2 fold change: 0.23

## RRIRMRPPRLPRPRPRPEWVPRP
  shrunken log2 fold change: 0.32

## RRIRMRPPRLPRPRPRPEYAPRP
  shrunken log2 fold change: 0.0325

## RRIRMRPPRLPRPRPRPEYGPRP
  shrunken log2 fold change: 0.132

## RRIRMRPPRLPRPRPRPFCDPRP
  shrunken log2 fold change: 0.179

## RRIRMRPPRLPRPRPRPFDYPRP
  shrunken log2 fold change: -0.16

## RRIRMRPPRLPRPRPRPFEKPRP
  shrunken log2 fold change: 0.00408

## RRIRMRPPRLPRPRPRPFHMPRP
  shrunken log2 fold change: 0.105

## RRIRMRPPRLPRPRPRPFHSPRP
  shrunken log2 fold change: -0.0121

## RRIRMRPPRLPRPRPRPFHTPRP
  shrunken log2 fold change: 0.0481

## RRIRMRPPRLPRPRPRPFICPRP
  shrunken log2 fold change: 0.0468

## RRIRMRPPRLPRPRPRPFKTPRP
  shrunken log2 fold change: -0.117

## RRIRMRPPRLPRPRPRPFLCPRP
  shrunken log2 fold change: -0.0722

## RRIRMRPPRLPRPRPRPFLYPRP
  shrunken log2 fold change: -0.124

## RRIRMRPPRLPRPRPRPFMSPRP
  shrunken log2 fold change: 0.0642

## RRIRMRPPRLPRPRPRPFNEPRP
  shrunken log2 fold change: -0.488

## RRIRMRPPRLPRPRPRPFPEPRP
  shrunken log2 fold change: 0.562

## RRIRMRPPRLPRPRPRPFPWPRP
  shrunken log2 fold change: 0.114

## RRIRMRPPRLPRPRPRPFRLPRP
  shrunken log2 fold change: -0.1

## RRIRMRPPRLPRPRPRPFRVPRP
  shrunken log2 fold change: 0.22

## RRIRMRPPRLPRPRPRPFSMPRP
  shrunken log2 fold change: -0.112

## RRIRMRPPRLPRPRPRPFTMPRP
  shrunken log2 fold change: -0.55

## RRIRMRPPRLPRPRPRPFTNPRP
  shrunken log2 fold change: 3.34

## RRIRMRPPRLPRPRPRPGAFPRP
  shrunken log2 fold change: 0.611

## RRIRMRPPRLPRPRPRPGCGPRP
  shrunken log2 fold change: 1.04

## RRIRMRPPRLPRPRPRPGDSPRP
  shrunken log2 fold change: 0.557

## RRIRMRPPRLPRPRPRPGEEPRP
  shrunken log2 fold change: 3.02

## RRIRMRPPRLPRPRPRPGFEPRP
  shrunken log2 fold change: 0.526

## RRIRMRPPRLPRPRPRPGGMPRP
  shrunken log2 fold change: 0.789

## RRIRMRPPRLPRPRPRPGIQPRP
  shrunken log2 fold change: -0.105

## RRIRMRPPRLPRPRPRPGKMPRP
  shrunken log2 fold change: 0.137

## RRIRMRPPRLPRPRPRPGLHPRP
  shrunken log2 fold change: 0.412

## RRIRMRPPRLPRPRPRPGLKPRP
  shrunken log2 fold change: 0.363

## RRIRMRPPRLPRPRPRPGMEPRP
  shrunken log2 fold change: 0.183

## RRIRMRPPRLPRPRPRPGMQPRP
  shrunken log2 fold change: -0.00144

## RRIRMRPPRLPRPRPRPGPRPRP
  shrunken log2 fold change: 1.46

## RRIRMRPPRLPRPRPRPGRYPRP
  shrunken log2 fold change: 0.0164

## RRIRMRPPRLPRPRPRPGSFPRP
  shrunken log2 fold change: 1.04

## RRIRMRPPRLPRPRPRPGSMPRP
  shrunken log2 fold change: 0.668

## RRIRMRPPRLPRPRPRPGSNPRP
  shrunken log2 fold change: 0.211

## RRIRMRPPRLPRPRPRPGTCPRP
  shrunken log2 fold change: 0.851

## RRIRMRPPRLPRPRPRPGVIPRP
  shrunken log2 fold change: 3.26

## RRIRMRPPRLPRPRPRPGVLPRP
  shrunken log2 fold change: 0.135

## RRIRMRPPRLPRPRPRPGVQPRP
  shrunken log2 fold change: 0.16

## RRIRMRPPRLPRPRPRPGVVPRP
  shrunken log2 fold change: 0.761

## RRIRMRPPRLPRPRPRPGWHPRP
  shrunken log2 fold change: 0.41

## RRIRMRPPRLPRPRPRPGWLPRP
  shrunken log2 fold change: 0.533

## RRIRMRPPRLPRPRPRPGWTPRP
  shrunken log2 fold change: 0.185

## RRIRMRPPRLPRPRPRPGYPPRP
  shrunken log2 fold change: 0.0749

## RRIRMRPPRLPRPRPRPHALPRP
  shrunken log2 fold change: -0.541

## RRIRMRPPRLPRPRPRPHAWPRP
  shrunken log2 fold change: 0.365

## RRIRMRPPRLPRPRPRPHCWPRP
  shrunken log2 fold change: -0.207

## RRIRMRPPRLPRPRPRPHEIPRP
  shrunken log2 fold change: 0.356

## RRIRMRPPRLPRPRPRPHFFPRP
  shrunken log2 fold change: -0.134

## RRIRMRPPRLPRPRPRPHGGPRP
  shrunken log2 fold change: -0.0492

## RRIRMRPPRLPRPRPRPHGWPRP
  shrunken log2 fold change: 0.839

## RRIRMRPPRLPRPRPRPHIKPRP
  shrunken log2 fold change: -0.501

## RRIRMRPPRLPRPRPRPHIQPRP
  shrunken log2 fold change: -0.421

## RRIRMRPPRLPRPRPRPHMSPRP
  shrunken log2 fold change: -0.123

## RRIRMRPPRLPRPRPRPHNDPRP
  shrunken log2 fold change: 0.00915

## RRIRMRPPRLPRPRPRPHPDPRP
  shrunken log2 fold change: -0.0902

## RRIRMRPPRLPRPRPRPHPTPRP
  shrunken log2 fold change: 0.805

## RRIRMRPPRLPRPRPRPHQMPRP
  shrunken log2 fold change: 0.126

## RRIRMRPPRLPRPRPRPHQRPRP
  shrunken log2 fold change: 0.236

## RRIRMRPPRLPRPRPRPHRMPRP
  shrunken log2 fold change: -0.0254

## RRIRMRPPRLPRPRPRPHRNPRP
  shrunken log2 fold change: -0.181

## RRIRMRPPRLPRPRPRPHSQPRP
  shrunken log2 fold change: -0.00628

## RRIRMRPPRLPRPRPRPHTDPRP
  shrunken log2 fold change: 0.0445

## RRIRMRPPRLPRPRPRPHTFPRP
  shrunken log2 fold change: -0.384

## RRIRMRPPRLPRPRPRPHTSPRP
  shrunken log2 fold change: 0.242

## RRIRMRPPRLPRPRPRPHWTPRP
  shrunken log2 fold change: -0.106

## RRIRMRPPRLPRPRPRPHYMPRP
  shrunken log2 fold change: -0.425

## RRIRMRPPRLPRPRPRPICWPRP
  shrunken log2 fold change: 0.0409

## RRIRMRPPRLPRPRPRPIDFPRP
  shrunken log2 fold change: -0.00165

## RRIRMRPPRLPRPRPRPIGHPRP
  shrunken log2 fold change: 0.0299

## RRIRMRPPRLPRPRPRPIGQPRP
  shrunken log2 fold change: 0.00911

## RRIRMRPPRLPRPRPRPIHLPRP
  shrunken log2 fold change: -0.209

## RRIRMRPPRLPRPRPRPIMNPRP
  shrunken log2 fold change: 0.284
